Test results from patent US20240075158A1 (JIANGSU HENGRUI PHARMACEUTICAL, published 2024).

B1: 25G7-(scdsFv)-PE38KDEL (scFv)
scFv: EVQLVESGGGLVQPGGSLRLSCAASGFTFSDYGMHWVRQAPGKCLEWVAFISSGSSIIYYADIVKGRSTISRDNAKNTLYLQMNSLRAEDTAVYYCTRGNKRGFFDYWGQGTLVTVSSGGGGSGGGGSGGGGSEIVLTQSPATLSLSPGERATLSCRASSSVPYMYWYQQKPGQAPRLLIYLTSNLASGIPARFSGSGSGTDFTLTISSLEPEDFAVYYCQQWRAYPPMLTFGCGTKVEIKASGGPEEGGSLAALTAHQACHLPLETFTRHRQPRGWEQLEQCGYPVQRLVALYLAARLSWNQVDQVIRNALASPGSGGDLGEAIREQPEQARLALTLAAAESERFVRQGTGNDEAGAANGPADSGDALLERNYPTGAEFLGDGGDVSFSTRGTQNWTVERLLQAHRQLEERGYVFVGYHGTFLEAAQSIVFGGVRARSQDLDAIWRGFYIAGDPALAYGYAQDQEPDARGRIRNGALLRVYVPRSSLPGFYRTSLTLAAPEAAGEVERLIGHPLPLRLDAITGPEEEGGRLETILGWPLAERTVVIPSAIPTDPRNVGGDLDPSSIPDKEQAISALPDYASQPGKPPKDEL

Experiments:
[1] = molecular target: human IL-4R overexpressed on glioblastoma cells (LN229-IL4R, U87-IL4R, U251-IL4R) (human) (UniProt P24394); assay: flow cytometry, U87-IL4R cells, 6.666667 ug/mL
[2] = molecular target: human IL-4R overexpressed on glioblastoma cells (LN229-IL4R, U87-IL4R, U251-IL4R) (human) (UniProt P24394); assay: flow cytometry, U87-IL4R cells, 0.027435 ug/mL
[3] = molecular target: human IL-4R overexpressed on glioblastoma cells (LN229-IL4R, U87-IL4R, U251-IL4R) (human) (UniProt P24394); assay: flow cytometry, U251-IL4R cells, 2.222222 ug/mL
[4] = molecular target: human IL-4R overexpressed on glioblastoma cells (LN229-IL4R, U87-IL4R, U251-IL4R) (human) (UniProt P24394); assay: flow cytometry, U251-IL4R cells, 0.246914 ug/mL
[5] = molecular target: rhIL-4R-Fc (ILR-H5253, Acro) (human) (UniProt P24394); assay: SPR Biacore 8K, rhIL-4R-Fc captured by anti-human IgG on CM5, immunotoxin as analyte
[6] = molecular target: human IL-4R overexpressed on glioblastoma cells (LN229-IL4R, U87-IL4R, U251-IL4R) (human) (UniProt P24394); assay: flow cytometry, U251-IL4R cells, 6.666667 ug/mL
[7] = molecular target: human IL-4R overexpressed on glioblastoma cells (LN229-IL4R, U87-IL4R, U251-IL4R) (human) (UniProt P24394); assay: flow cytometry, U87-IL4R cells, 20 ug/mL
[8] = molecular target: human IL-4R overexpressed on glioblastoma cells (LN229-IL4R, U87-IL4R, U251-IL4R) (human) (UniProt P24394); assay: flow cytometry, U87-IL4R cells, 0.246914 ug/mL
[9] = molecular target: human IL-4R overexpressed on glioblastoma cells (LN229-IL4R, U87-IL4R, U251-IL4R) (human) (UniProt P24394); assay: flow cytometry, U87-IL4R cells, 0.082305 ug/mL
[10] = molecular target: human IL-4R overexpressed on glioblastoma cells (LN229-IL4R, U87-IL4R, U251-IL4R) (human) (UniProt P24394); assay: flow cytometry, U251-IL4R cells, 0.740741 ug/mL
[11] = molecular target: human IL-4R overexpressed on glioblastoma cells (LN229-IL4R, U87-IL4R, U251-IL4R) (human) (UniProt P24394); assay: flow cytometry, U251-IL4R cells, 0.027435 ug/mL
[12] = molecular target: human IL-4R overexpressed on glioblastoma cells (LN229-IL4R, U87-IL4R, U251-IL4R) (human) (UniProt P24394); assay: flow cytometry, LN229-IL4R cells, 6.666667 ug/mL
[13] = molecular target: human IL-4R overexpressed on glioblastoma cells (LN229-IL4R, U87-IL4R, U251-IL4R) (human) (UniProt P24394); assay: flow cytometry, U87-IL4R cells, 0.740741 ug/mL
[14] = molecular target: human IL-4R overexpressed on glioblastoma cells (LN229-IL4R, U87-IL4R, U251-IL4R) (human) (UniProt P24394); assay: flow cytometry, LN229-IL4R cells, 0.246914 ug/mL
[15] = molecular target: human IL-4R overexpressed on glioblastoma cells (LN229-IL4R, U87-IL4R, U251-IL4R) (human) (UniProt P24394); assay: flow cytometry, U87-IL4R cells, 2.222222 ug/mL
[16] = molecular target: human IL-4R overexpressed on glioblastoma cells (LN229-IL4R, U87-IL4R, U251-IL4R) (human) (UniProt P24394); assay: flow cytometry, LN229-IL4R cells, 20 ug/mL
[17] = molecular target: human IL-4R overexpressed on glioblastoma cells (LN229-IL4R, U87-IL4R, U251-IL4R) (human) (UniProt P24394); assay: cell-based or functional assay
[18] = molecular target: human IL-4R overexpressed on glioblastoma cells (LN229-IL4R, U87-IL4R, U251-IL4R) (human) (UniProt P24394); assay: flow cytometry, LN229-IL4R cells, 2.222222 ug/mL
[19] = molecular target: human IL-4R overexpressed on glioblastoma cells (LN229-IL4R, U87-IL4R, U251-IL4R) (human) (UniProt P24394); assay: flow cytometry, LN229-IL4R cells, 0.027435 ug/mL
[20] = molecular target: human IL-4R overexpressed on glioblastoma cells (LN229-IL4R, U87-IL4R, U251-IL4R) (human) (UniProt P24394); assay: flow cytometry, LN229-IL4R cells, 0.082305 ug/mL
[21] = molecular target: human IL-4R overexpressed on glioblastoma cells (LN229-IL4R, U87-IL4R, U251-IL4R) (human) (UniProt P24394); assay: flow cytometry, U251-IL4R cells, 0.082305 ug/mL
[22] = molecular target: human IL-4R overexpressed on glioblastoma cells (LN229-IL4R, U87-IL4R, U251-IL4R) (human) (UniProt P24394); assay: flow cytometry, LN229-IL4R cells, 0.740741 ug/mL
[23] = molecular target: human IL-4R overexpressed on glioblastoma cells (LN229-IL4R, U87-IL4R, U251-IL4R) (human) (UniProt P24394); assay: flow cytometry, U251-IL4R cells, 20 ug/mL
[24] = molecular target: T1, rhIL-4R-Fc (ILR-H5253, Acro) (human, UniProt P24394 26-232)
T1 sequence: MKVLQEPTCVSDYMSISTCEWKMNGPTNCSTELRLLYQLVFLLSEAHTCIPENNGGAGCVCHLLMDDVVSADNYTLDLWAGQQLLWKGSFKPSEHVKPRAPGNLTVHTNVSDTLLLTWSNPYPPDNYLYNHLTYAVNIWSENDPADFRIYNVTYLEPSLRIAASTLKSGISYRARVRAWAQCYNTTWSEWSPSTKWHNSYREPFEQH

Row | Molecule | Mean MFI [1] [MFI] | Mean MFI [2] [MFI] | Mean MFI [3] [MFI] | Mean MFI [4] [MFI] | Mean MFI [6] [MFI] | Mean MFI [7] [MFI] | Mean MFI [8] [MFI] | Mean MFI [9] [MFI] | Mean MFI [10] [MFI] | Mean MFI [11] [MFI] | Mean MFI [12] [MFI] | Mean MFI [13] [MFI] | Mean MFI [14] [MFI] | Mean MFI [15] [MFI] | Mean MFI [16] [MFI] | Mean MFI [18] [MFI] | Mean MFI [19] [MFI] | Mean MFI [20] [MFI] | Mean MFI [21] [MFI] | Mean MFI [22] [MFI] | further results
1 | MDNA55 (ligand) | 29700 | 9120 | 13700 | 8130 | 17500 | 32700 | 17100 | 12000 | 10700 | 3180 | 21100 | 21600 | 12400 | 25300 | 24300 | 19400 | 4470 | 8310 | 5860 | 16200 | Kd [5]: 0.439 nM; koff [5]: 0.0029 s⁻¹; kon [5]: 6.62e+06 M⁻¹ s⁻¹; in vitro killing (CTG cell viability), LN229-IL4R cells [17]: 80%; Mean MFI [23]: 22600 MFI
2 | hIgG1 isotype control (antibody) | 306 | 588 | 282 | 287 | 288 | 318 | 322 | 394 | 284 | 263 | 244 | 339 | 300 | 334 | 231 | 361 | 352 | 318 | 274 | 286 | Mean MFI [23]: 275 MFI
3 | B1 |  |  |  |  |  |  |  |  |  |  |  |  |  |  |  |  |  |  |  |  | Kd [24]: 0.101 nM; koff [24]: 0.000279 s⁻¹; kon [24]: 2.77e+06 M⁻¹ s⁻¹
